Assay results published in patent US20200055952A1 (B CELL DESIGN, published 2020).

T1: CEACAM-6 (NCA or CD66c) (UniProt P40199 35-320, limits assumed)
T1 construct: whole, on cells
T1 sequence (looked up): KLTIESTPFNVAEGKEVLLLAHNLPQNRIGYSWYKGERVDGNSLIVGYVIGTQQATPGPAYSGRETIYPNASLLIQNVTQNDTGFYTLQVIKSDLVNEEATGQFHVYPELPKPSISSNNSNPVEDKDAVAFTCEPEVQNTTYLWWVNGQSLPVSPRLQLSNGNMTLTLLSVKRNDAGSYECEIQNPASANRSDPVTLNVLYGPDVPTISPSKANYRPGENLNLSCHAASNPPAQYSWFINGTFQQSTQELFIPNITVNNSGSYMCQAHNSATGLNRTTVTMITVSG

B1: anti-CEA IgA monoclonal antibody clone 15B3 (human/mouse chimeric IgA1, hybridoma culture supernatant) (antibody, V domains shown)
VH: QIQLVQSGPELKKPGETVKISCKASGYTFTNYGMNWVNQAPGKGLKWMGWINTNTGEPTYAEEFKGRFAFSLETSASTAYLQINNLKNEDTATYFCARLWYLYFDVWGAGTTVTVSS
VL: DIQMTQSPASQSASLGESVTITCLASQTIGTRLAWYQQKPGKSPQLLIYAATRLADGVPSRFSGSGSGTKFSFKISSLQAEDFVSYYCQQLYSTPYTFGGGTKLEIK
notes: From HAMIGA mice: human IgA1 heavy chain constant regions, mouse light chain constant regions, mouse variable regions; The hybridoma supernatant holds monomeric (no J chain) and polymeric (murine J chain) forms; also called mAb 15B3; IgA anti-CEA clone #15B3

Legend:
[1] = target: carcinoembryonic antigen (CEA) on WiDr human colorectal cancer cells (human) (UniProt P06731); test: cell-based or functional assay
CEACAM-6 (NCA or CD66c) = target: T1, CEACAM-6 (NCA or CD66c); test: immunofluorescence on tissues (liver and stomach) and flow cytometry on leukocytes, data not shown

Molecule	doubly selected cells (Effector Cell (CD89+): WiDr target cells (CEA+)) by flow cytometry, in vivo in SCID-CD89 mice [1] [%]	binding result (CEACAM-6 (NCA or CD66c))
irrelevant polymeric IgA anti-peanut (antibody)	10.2	
B1		no binding
